# Laboratory results as given in article PMC3902905.
# How the values were obtained:
# [1] = biological target: Egg nucleoplasmin (eNP) from Xenopus laevis (X. laevis) (UniProt P05221); assay: AUC; sedimentation equilibrium, Buffer I (0.24 M NaCl), NP 0.3 µM, 4°C, 8000 and 12 000 rpm, fit to a single ideal species
# [2] = biological target: Egg nucleoplasmin (eNP) from Xenopus laevis (X. laevis) (UniProt P05221); assay: co-sedimentation; 5–20% sucrose gradient in Buffer I (240 mM NaCl), NP 0.9 µM mixed with histones, 1 h 25°C, 29 000 rpm 22 h 4°C; fractions by A230 and SDS–PAGE
# [3] = biological target: Egg nucleoplasmin (eNP) from Xenopus laevis (X. laevis) (UniProt P05221); assay: native gel or EMSA; 2D electrophoresis (4–16% native PAGE, then 12.5% SDS–PAGE) of the high molecular mass complex and densitometry with known amounts of each protein as standards; Buffer I, 240 mM NaCl
# Chain of UniProt P05221 (P05221 whole entry): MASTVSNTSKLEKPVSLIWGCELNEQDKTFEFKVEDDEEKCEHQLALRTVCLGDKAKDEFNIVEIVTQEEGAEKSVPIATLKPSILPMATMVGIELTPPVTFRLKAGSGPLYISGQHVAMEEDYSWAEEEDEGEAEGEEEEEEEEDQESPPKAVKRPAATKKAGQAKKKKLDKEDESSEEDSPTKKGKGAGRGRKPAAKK
stoichiometry N (eNP pentamers per histone octamer) [1],stoichiometry N (octamer per NP pentamer) [2],stoichiometry N (octamer per NP pentamer) [3],stoichiometry N (H3-H4 dimers per NP pentamer) [3],Substance
2,0.5,0.54,–,Natural source histone octamer from chicken erythrocyte chromatin (from UniProt P70081 1-103) (complex)
–,–,–,2.1,Natural source histones H3-H4 from chicken erythrocyte chromatin (from UniProt P84229 1-136; P70081 1-103) (complex)
